Measured values reported in the nanobody polyreactivity screen of Harvey et al. (2022).

Assay: yeast display, Sf9 membrane polyspecificity reagent, FACS + sequencing; frameworks hold sequencing errors
In short: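 Genes from sorted yeast were amplified by colony PCR, read by MiSeq 2 × 250 sequencing and filtered on CDR length. These cells carried a synthetic nanobody library in Saccharomyces cerevisiae BJ5465 and were sorted by FACS into low and high (top ~1%) gates on anti-HA and streptavidin fluorescence. Polyreactivity is labelled according to the gate of origin.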

## QVQLVESGGGLVQAGGSLRLTCAASGSTYYSYAMGWYRQATGKERELVAAITSRGDRTYYADSVQGRFTISRDNAKNTVYLQMNSLKPEDTAVYYCAAEQSWQGYAYYYCGQGTQVTVSS
  polyreactivity (PSR sort gate): high polyreactivity

## QVQLVESGGGLVQAGGSLRLSCAASGRTFTGYAMGWYRQAPGKERELVAAISASGGSTYYADSVKGRFTISRDNAKNTVYLQMNSLKPEDTAVYYCAAESWYSVLWEEGYDYWGQGTQVTVSS
  polyreactivity (PSR sort gate): low polyreactivity

## QVQLVESGGGLVQAGGSLRLICAASGFIFYGNAMGWYRQAPGKERELVAAISSSGGSTYYADSVKGRFTISRDNAKNTVYLQMNSLKPEDTAVYYCNKYYLVKGPYDWGQGTQVTVSS
  polyreactivity (PSR sort gate): high polyreactivity

## QLQLVESGGGLVQAGGSLRLSCAASGSIFPDYAMGWYRPAPAKERELVAAITWRDDSTYYADSVKGRFTISRDNAKNTVYLQMNSLKPEDTAVYYCNASALDPLYAKDDYWGQGTQVTVSS
  polyreactivity (PSR sort gate): low polyreactivity

## QVQLVESGGGLVQAGGSLRLSCAASGSIFRVYAMGWYRQAPGKERELVAAISRGGGTTYYADSVKGRFTISRDNAKNTVYLQMNRLKPEDTAVYYCASEYLGYYYQFDSWGQGTQVTVSS
  polyreactivity (PSR sort gate): high polyreactivity

## QVQLVESGGGLVQAGGSLRLSCAASGIIFYIYAMGWYRQAPGKETELVASISFSGTSTYYADSVKGRFTISRDNAKNTVYLQLHSLKPEDTAVYYCNAQTNRPWGWPIGYDYWGQGTQVTVSS
  polyreactivity (PSR sort gate): low polyreactivity

## QFQLVESGGGLVQAGGSLRLSCAASGRTSLGYDMRWYRQAPGKERELVAAITRSGGYTYYADSVKGRFTISRDNAKNTVYLQMNSLKPEDTAVYYCAAYWRYSGYYYWGQGTQVTVSS
  polyreactivity (PSR sort gate): low polyreactivity

## QVQLVESGGGLVQAGGSLRLSCSASGRTFDGYAMVWYRQAPGKEREMVASITRGGGSTYYADSVKGRFTISRDNAKNTVYLQMNSLKPEDTAVYYCATSDRQVKYDYWGQGTQVTVSS
  polyreactivity (PSR sort gate): low polyreactivity

## QVQLVESGGGLVQAGGSLRLSCATSGFTFVYNAMGWYRQAPGKESELVAAINWSGGRTYYADSVKGRFTISRDNAKNTVYLQMNSLKPEDTAVYYCAAGYSPYKGSAGYYWGQGTQVTVSS
  polyreactivity (PSR sort gate): low polyreactivity

## QVQLVESGGGLVQAGGSLRLSCAASGRTFGIYAMGWYRQAPGKERELVAAITWSGDSTYYADSVKGRFTISRDNAKNTVYLQMNSLKPEDTAVYYCAADYFGVTSVRYDYWGQGTQVTVSS
  polyreactivity (PSR sort gate): low polyreactivity

## QVQLVESGGGLVQAGGSLRLSCAASGSIFYYNAMGWYRQAPGKERELVAAISSDGGTYYADSVKGRFTISRDNAKNTVYLQMNSLKPEDTAVYYCNAEVFWWDQWYDYWGQGTQVTVSS
  polyreactivity (PSR sort gate): high polyreactivity

## QVQLVESGGGLVQAGGSLRLSCAASGRTFSYNAMGWYRQAPGKERELVAAINGDGGSTYYADSVKGRFTISRDNAKNTVYLQMNSLKPEDTAVYYCNRPRIYRYGYWGQGTQVTVSS
  polyreactivity (PSR sort gate): high polyreactivity

## QDQLVESGGGIVQAGGTLRLSCAASGRTIGGYDMGWDRQAPGKERQLVAAIRTGGRTNYADSVKGRFTISRDNAKNTVYLQLNSLKPEDTAVYYCNARRRIADPRAGIYDYCGQGTQVTVSS
  polyreactivity (PSR sort gate): high polyreactivity

## QVQLVESGGGLVLAGGSLRLSCAASGRIFYQNAMGWYRQAPGKERELVAGITRGGSTYYADSVKGRFTISRDNAKNTVYLQMNSLKPEETAVYYCAVAFWRTKWYDYWGQGTQVTVSS
  polyreactivity (PSR sort gate): low polyreactivity

## QVQLVESGGGLVQAGGSLRLSCAASGRTFKHYAMGWYRPAPGKERELVATITNTGGRTNYADSVKGRFTISRDNAKNTVYLQMYSLKPEDTAVYYCNRVNDYYRPGGRPFGIFDYWGQGTQVTVSS
  polyreactivity (PSR sort gate): low polyreactivity

## QVQLVESGGGLVQAGGSLRLSCAATGRTFQDNAMGWYRQAPGKERELVAAISWRGGSTNYADSVKGRFTISRDNAKNTVYLQMNSLKPEDTAVYYCNRDPRKYGKLDYWGQGTQVTVSS
  polyreactivity (PSR sort gate): low polyreactivity

## QVQLVESGGGLVQAGGSLRLSCAASGRTFGTNAMGWYRQAPGKERELVAAIRRGGSRTYNADSVKGRFTISRDIAKNTVYLQMNSLKPEDTAVYYCAVDYYPYEVSYVRMDYWGQCTQVTVSS
  polyreactivity (PSR sort gate): low polyreactivity

## QVQLVESGGGLVQAGGSLRLSCAASGLIFRIYAMGWYRQAPGKERELVAAISSTGSRTYYADSVKGRFTISRDNAKNTVYLQMNSLKPEDTAVYYCAAKAYINNYDYWGQGTQVTVSS
  polyreactivity (PSR sort gate): high polyreactivity

## QVQLVESGGGLVQAGGSLRLSCAASGLTISTYAMGWYIQAPGKDRELVATITYSGSSTYADSVKGRFTISRDNAKNTVYLQMNSLKPEDTAVYYCAAFTYHGNPSEYYPDTVGFYYWGQGTQVSVSS
  polyreactivity (PSR sort gate): low polyreactivity

## QVQLQESGGGLVQAGGSLRLSCAASGTIFTARFMGWYRQAPGKERELVATITDGGNTNHADSVKGRFTISRDNAKNTVYLQMNSLKPEDAAVYFCAAGEVDNDTLLYWGQGSQVTVSS
  polyreactivity (PSR sort gate): low polyreactivity

## QVQLVESGGGLVKAGGSLRLSCAASGSTFTYYAMGWYRQAPGKERELVARITWTGGRTYYADSVKGRFTISRGNAKNTVYLQMNSLKPEDTAVNYCNALPYFYETQYDYWGQGTQVTVSS
  polyreactivity (PSR sort gate): low polyreactivity

## QVQLVESGGVLVQAGGSLRLSCAASGRIFQTYAMGWYRQAPGKERELVAAISSRGRTYYADSVKGRFTISRDNAKITVYLQMNSLKREDTAVYYCAARDWSHRPRGYDYWGQGTQVTVSS
  polyreactivity (PSR sort gate): high polyreactivity

## QVQLVESGGGLVQAGGSLRLSCDASGRTLDVNARGWYRQAPGKERELVAAISYSGGITYYADSVKGRFTISRDNAKNTVYLQMNRLKPEDTAVYYCAVVGGYPSYTVDYWGKGTQVTVSS
  polyreactivity (PSR sort gate): low polyreactivity

## QVQLVESGGGLVQAGGSLRLSCAASGSIYTRYPMGWYRQAPGKERELVAAISINGGSTYYADSVKGRFTISRDNAKNTVYLHMNSLKPEDTAVYYCARHYYRWNNFLYLSGYYWGQGSQVTVSS
  polyreactivity (PSR sort gate): high polyreactivity

## QVQLVESGGGLVQAGGSLRLSCAASGFTFFYNDMGSYRQAPGKERELVAAINLSGGTTYYADSVKGRFTISRDNAKNTVYLQMNSLIPEDTAVYYCNRASSTPWYRWRYKPFDYWGQGTQVTVSS
  polyreactivity (PSR sort gate): high polyreactivity

## QVQLVESGGGLVQAGGSLRLSCDASGFIFNAYAMGWYRQAPGKERELVAAISTRGSNTYYADSVKGRFTISRDNAKNTVYLQMNSLKPDDTAVYYCAARGYVTFSKSNYWGQGTQVTVSS
  polyreactivity (PSR sort gate): high polyreactivity

## QVQLVESGGGLVQAGGSLRVSCAASGSTCDVNAMGWYRQAPGKERELVAAMSWSDDATYYAYSVKGRFTISRDNAKNTVYVQMNSLKPEDTAVYYCAADGRYGWYYAVYNGEDYWGQGTQVTVSS
  polyreactivity (PSR sort gate): high polyreactivity

## QVQLVESGGGLVQAGGSLRLSCAASGRTFPFYAMGWYRPAPGTERELVASIRGGGGTNYADSVKGRFTISRDNAKNTVYLQMNSLKPEDTAVYYCAARGYGYRGYYYWGQGTQVTVSS
  polyreactivity (PSR sort gate): high polyreactivity

## QVQLVESGGGLEQAGGSLRLTWAASGRIFYVYAMGLYIQAPGKERELVAAITWRGGTTYYADSVKGRFTISRDNAQNTVYLEMNSLKPEDTAVYYCNAKYFRSYYSIEYDYWGQGTQVTVSS
  polyreactivity (PSR sort gate): low polyreactivity

## QVQLVESGGGLVQAGGSLRLSCAASGRIFFGYAMGWYRQAPGKERELVAAITRRGTITHYADSVKGRFTISRDNAKNTVYLQMNSLKPEDTAVYYCNTVYARYSTAPGYNYWGQGTQVTVSS
  polyreactivity (PSR sort gate): high polyreactivity

## QVQHVESGGGLVQAGGSLRLSCAASGRTVASYAMGWYRPAPGKERELVAVITRGGRTYYADSVKGRFTISRDNAKNTVYLQLNSLKPEDTAVYYCKAAYYSSSYLEDSWGHGTQVTVSS
  polyreactivity (PSR sort gate): high polyreactivity

## QVQLVESGGGLVQAGGSLRLSCAATGSIFYNYAMGWYRQAPGKERELVAAINRSGGITFYADSVKGRFTISRDNAKNTVYLQMNSLKPEDTAVYYCAAEEVPYDRDMDYWGQGTQVTVSS
  polyreactivity (PSR sort gate): low polyreactivity

## QVQLVESGGGLVQAGGSLRLSCAASGRIFLVYGMGWYREAPGKERELVASITYRGGSTYYADSVKGRFTISRDNAKNTVYLQMNSLKPEDTAVYYCADDGAFYASTEMDYWGQGTQVNVSS
  polyreactivity (PSR sort gate): low polyreactivity

## QVKLVESGGVLVQAGGSLRLSCAASAFTFRWYSMGWYRQATGKERELVARISWDGGSTYYADSVKGRFTISRDNAKNTVYVQMNSLKPEDTAVYYCAIDWYYLRRNYDYWGQGTQVTLSS
  polyreactivity (PSR sort gate): high polyreactivity

## QVQLVESGGGLVQAGGSLRLTCAASGSTFSKNGMGWYRQAPGKEREFVAAISGSGGSTYYADSVRGRFTISRDNAKNTVYLQMNSLKPEDTAVYYCAARRVWYYISAYGYWGQGTQVTVSS
  polyreactivity (PSR sort gate): high polyreactivity

## QVQLVESGGVLVQAVASLRVSCAASGRILDYNTMGWYRPAPGKERELVAAISFSGGRTYYADSVKGRFTISRDNAKNTFYLQMNSLKPEDTAVYYCAATVGAASRYYYWGQGSQVTVSS
  polyreactivity (PSR sort gate): high polyreactivity

## QVQLVESGGGLVQAGGSLRLSCAASGRIFGPDAMRWYRQAPRKERELVAAITWRGDRTYYADSVKGRFTISRDIAKNSVYLQINSLKPEDTAVYYCAARGGRSEYDYWGQATQVTVSS
  polyreactivity (PSR sort gate): low polyreactivity

## QVQLGESGGGLVQAGGSLRLSCAASGSTFAKYVMGWYRQAPGKERELVAAISRRGSSTYYADSVKGRFTISRDNAKNTVYLQMNSLKPEDTAVYYCNAGSFSRKARRYDYWGQGTQVTVSS
  polyreactivity (PSR sort gate): high polyreactivity

## QVHLVESGGGLVQAGGILLLSCAASGYDMGWYRQAPGKERELVAAISRGGSTSYADSVKGRFTISRDNAKNTVYLQMNSLKPEDTAVYYCAARYGSYRVGYDYWGQGTQVTVSS
  polyreactivity (PSR sort gate): low polyreactivity

## QVQLVESGGGLVQAGGSLRLSCAASGITFTVYAMGWYRQARGKERELVAAINSGSSTNYADSVKGRFTISRDNAKNTVFLQMNSLKPEDTAVYYCAASYRKLPDKKRYGYWGQGTQVTVSS
  polyreactivity (PSR sort gate): high polyreactivity

## QVQLVESGGGLVQAGGSLRLSCAASGSTFLYYAMGWYREAPGKERELVAVISWSGVSTYYADSVKGRFTISRDNAKNTVYLQMKSLKPEDTAVYYCNTGNHYIRTYGYWGQGTQVTVSS
  polyreactivity (PSR sort gate): low polyreactivity

## QVQLVESGGGLVQAGGSLRLSCAASGSIFYFYAMGWYRQAPGKERELVAAISRSVGSTNYADSVKGRFTISRDNAKNTVYLQMNSLKPEDTAVYYCAARRYGAYYWGQGTQVTVSS
  polyreactivity (PSR sort gate): high polyreactivity

## QVQLQESGGGLVQAGGSLRLSCAASGTISLGDNMGWYRQAPGKEREFVATISVGGITYYVDSVKGRFTISRDIAKNTVYLQMNSLKPEDTAVYYCAALDIYYFRYYYWGQGTQVTVSS
  polyreactivity (PSR sort gate): low polyreactivity
